Measured values published in US20150344570A1 (published 2015).

T1: FcγRIIa H (FcγRIIa type H, His at position 131), extracellular domain with C-terminal His tag (human, UniProt P12318 34-217)
T1 construct: extracellular domain; also called FcgRIIa H; 2aH
T1 sequence (looked up): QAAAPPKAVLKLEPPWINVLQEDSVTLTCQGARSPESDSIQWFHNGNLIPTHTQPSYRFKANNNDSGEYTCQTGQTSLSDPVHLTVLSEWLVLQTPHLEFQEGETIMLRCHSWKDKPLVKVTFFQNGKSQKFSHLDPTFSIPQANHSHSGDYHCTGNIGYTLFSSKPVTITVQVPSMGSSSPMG


target: T1, FcγRIIa H (FcγRIIa type H, His at …); experiment: SPR Biacore, relative binding, GpH7-B3/GpL16-k0 (HoCon Ab)=100
Description: Analysis of interaction between objective antibody and the FcγR was carried out using Biacore T100 (GE Healthcare). HBS-EP+ (GE Healthcare) was used as the running buffer, and the measurement temperature was set to 25° C. Chips produced by immobilizing the antigen peptide by the amine coupling method to a Series S Sencor Chip CM5 (GE Healthcare), or alternatively, chips produced by allowing preliminarily biotinylated antigen peptides to interact with and immobilize onto a Series S Sensor Chip SA (certified) (GE Healthcare) were used. Antibodies of interest were captured onto an antigen peptide-immobilized chip, and allowed to interact to each FcγR diluted with running buffer. To regenerate and repeatedly use the chip, the antibodies captured on the chip were washed off by reacting 10 mM glycine-HCl, pH 1.5.

Binder | Ho/Con_2aH
GpH7-B3 variant K334_14T/GpL16-k0 (antibody, human IgG1, kappa, both H chains mutated; also called Ho Ab) heavy: not shown light: DIVMTQSPLSLPVTPGEPASISCQASESLVHSNRNTYLHWYLQKPGQSPQLLIYKVSNRFSGVPDRFSGSGSGTDFTLKISRVEAEDVGVYYCSQNTHVPPTFGQGTKVEIERTVAAPSVFIFPPSDEQLKSGTASVVCLLNNFYPREAKVQWKVDNALQSGNSQESVTEQDSKDSTYSLSSTLTLSKADYEKHKVYACEVTHQGLSSPVTKSFNRGEC | 105 % of control
GpH7-B3 variant L328_14T/GpL16-k0 (antibody, human IgG1, kappa, both H chains mutated; also called Ho Ab) heavy: not shown light: DIVMTQSPLSLPVTPGEPASISCQASESLVHSNRNTYLHWYLQKPGQSPQLLIYKVSNRFSGVPDRFSGSGSGTDFTLKISRVEAEDVGVYYCSQNTHVPPTFGQGTKVEIERTVAAPSVFIFPPSDEQLKSGTASVVCLLNNFYPREAKVQWKVDNALQSGNSQESVTEQDSKDSTYSLSSTLTLSKADYEKHKVYACEVTHQGLSSPVTKSFNRGEC | 110 % of control
GpH7-B3 variant L328_13S/GpL16-k0 (antibody, human IgG1, kappa, both H chains mutated; also called Ho Ab) heavy: not shown light: DIVMTQSPLSLPVTPGEPASISCQASESLVHSNRNTYLHWYLQKPGQSPQLLIYKVSNRFSGVPDRFSGSGSGTDFTLKISRVEAEDVGVYYCSQNTHVPPTFGQGTKVEIERTVAAPSVFIFPPSDEQLKSGTASVVCLLNNFYPREAKVQWKVDNALQSGNSQESVTEQDSKDSTYSLSSTLTLSKADYEKHKVYACEVTHQGLSSPVTKSFNRGEC | 131 % of control
GpH7-B3 variant L328_06M/GpL16-k0 (antibody, human IgG1, kappa, both H chains mutated; also called Ho Ab) heavy: not shown light: DIVMTQSPLSLPVTPGEPASISCQASESLVHSNRNTYLHWYLQKPGQSPQLLIYKVSNRFSGVPDRFSGSGSGTDFTLKISRVEAEDVGVYYCSQNTHVPPTFGQGTKVEIERTVAAPSVFIFPPSDEQLKSGTASVVCLLNNFYPREAKVQWKVDNALQSGNSQESVTEQDSKDSTYSLSSTLTLSKADYEKHKVYACEVTHQGLSSPVTKSFNRGEC | 100 % of control
GpH7-B3 variant K334_15Y/GpL16-k0 (antibody, human IgG1, kappa, both H chains mutated; also called Ho Ab) heavy: not shown light: DIVMTQSPLSLPVTPGEPASISCQASESLVHSNRNTYLHWYLQKPGQSPQLLIYKVSNRFSGVPDRFSGSGSGTDFTLKISRVEAEDVGVYYCSQNTHVPPTFGQGTKVEIERTVAAPSVFIFPPSDEQLKSGTASVVCLLNNFYPREAKVQWKVDNALQSGNSQESVTEQDSKDSTYSLSSTLTLSKADYEKHKVYACEVTHQGLSSPVTKSFNRGEC | 110 % of control
GpH7-B3 variant K334_16H/GpL16-k0 (antibody, human IgG1, kappa, both H chains mutated; also called Ho Ab) heavy: not shown light: DIVMTQSPLSLPVTPGEPASISCQASESLVHSNRNTYLHWYLQKPGQSPQLLIYKVSNRFSGVPDRFSGSGSGTDFTLKISRVEAEDVGVYYCSQNTHVPPTFGQGTKVEIERTVAAPSVFIFPPSDEQLKSGTASVVCLLNNFYPREAKVQWKVDNALQSGNSQESVTEQDSKDSTYSLSSTLTLSKADYEKHKVYACEVTHQGLSSPVTKSFNRGEC | 101 % of control
GpH7-B3 variant L235_20W/GpL16-k0 (antibody, human IgG1, kappa, both H chains mutated; also called Ho Ab) heavy: not shown light: DIVMTQSPLSLPVTPGEPASISCQASESLVHSNRNTYLHWYLQKPGQSPQLLIYKVSNRFSGVPDRFSGSGSGTDFTLKISRVEAEDVGVYYCSQNTHVPPTFGQGTKVEIERTVAAPSVFIFPPSDEQLKSGTASVVCLLNNFYPREAKVQWKVDNALQSGNSQESVTEQDSKDSTYSLSSTLTLSKADYEKHKVYACEVTHQGLSSPVTKSFNRGEC | 112 % of control
GpH7-B3 variant L328_02A/GpL16-k0 (antibody, human IgG1, kappa, both H chains mutated; also called Ho Ab) heavy: not shown light: DIVMTQSPLSLPVTPGEPASISCQASESLVHSNRNTYLHWYLQKPGQSPQLLIYKVSNRFSGVPDRFSGSGSGTDFTLKISRVEAEDVGVYYCSQNTHVPPTFGQGTKVEIERTVAAPSVFIFPPSDEQLKSGTASVVCLLNNFYPREAKVQWKVDNALQSGNSQESVTEQDSKDSTYSLSSTLTLSKADYEKHKVYACEVTHQGLSSPVTKSFNRGEC | 134 % of control
GpH7-B3 variant P271_01G/GpL16-k0 (antibody, human IgG1, kappa, both H chains mutated; also called Ho Ab) heavy: not shown light: DIVMTQSPLSLPVTPGEPASISCQASESLVHSNRNTYLHWYLQKPGQSPQLLIYKVSNRFSGVPDRFSGSGSGTDFTLKISRVEAEDVGVYYCSQNTHVPPTFGQGTKVEIERTVAAPSVFIFPPSDEQLKSGTASVVCLLNNFYPREAKVQWKVDNALQSGNSQESVTEQDSKDSTYSLSSTLTLSKADYEKHKVYACEVTHQGLSSPVTKSFNRGEC | 110 % of control
GpH7-B3 variant Q295_05P/GpL16-k0 (antibody, human IgG1, kappa, both H chains mutated; also called Ho Ab) heavy: not shown light: DIVMTQSPLSLPVTPGEPASISCQASESLVHSNRNTYLHWYLQKPGQSPQLLIYKVSNRFSGVPDRFSGSGSGTDFTLKISRVEAEDVGVYYCSQNTHVPPTFGQGTKVEIERTVAAPSVFIFPPSDEQLKSGTASVVCLLNNFYPREAKVQWKVDNALQSGNSQESVTEQDSKDSTYSLSSTLTLSKADYEKHKVYACEVTHQGLSSPVTKSFNRGEC | 106 % of control

Continued, values first:

Ho/Con_2aH | Binder
101 % of control | GpH7-B3 variant S337_10E/GpL16-k0 (antibody, human IgG1, kappa, both H chains mutated; also called Ho Ab) heavy: not shown light: DIVMTQSPLSLPVTPGEPASISCQASESLVHSNRNTYLHWYLQKPGQSPQLLIYKVSNRFSGVPDRFSGSGSGTDFTLKISRVEAEDVGVYYCSQNTHVPPTFGQGTKVEIERTVAAPSVFIFPPSDEQLKSGTASVVCLLNNFYPREAKVQWKVDNALQSGNSQESVTEQDSKDSTYSLSSTLTLSKADYEKHKVYACEVTHQGLSSPVTKSFNRGEC
102 % of control | GpH7-B3 variant S324_02A/GpL16-k0 (antibody, human IgG1, kappa, both H chains mutated; also called Ho Ab) heavy: not shown light: DIVMTQSPLSLPVTPGEPASISCQASESLVHSNRNTYLHWYLQKPGQSPQLLIYKVSNRFSGVPDRFSGSGSGTDFTLKISRVEAEDVGVYYCSQNTHVPPTFGQGTKVEIERTVAAPSVFIFPPSDEQLKSGTASVVCLLNNFYPREAKVQWKVDNALQSGNSQESVTEQDSKDSTYSLSSTLTLSKADYEKHKVYACEVTHQGLSSPVTKSFNRGEC
105 % of control | GpH7-B3 variant S337_14T/GpL16-k0 (antibody, human IgG1, kappa, both H chains mutated; also called Ho Ab) heavy: not shown light: DIVMTQSPLSLPVTPGEPASISCQASESLVHSNRNTYLHWYLQKPGQSPQLLIYKVSNRFSGVPDRFSGSGSGTDFTLKISRVEAEDVGVYYCSQNTHVPPTFGQGTKVEIERTVAAPSVFIFPPSDEQLKSGTASVVCLLNNFYPREAKVQWKVDNALQSGNSQESVTEQDSKDSTYSLSSTLTLSKADYEKHKVYACEVTHQGLSSPVTKSFNRGEC
107 % of control | GpH7-B3 variant S337_09D/GpL16-k0 (antibody, human IgG1, kappa, both H chains mutated; also called Ho Ab) heavy: not shown light: DIVMTQSPLSLPVTPGEPASISCQASESLVHSNRNTYLHWYLQKPGQSPQLLIYKVSNRFSGVPDRFSGSGSGTDFTLKISRVEAEDVGVYYCSQNTHVPPTFGQGTKVEIERTVAAPSVFIFPPSDEQLKSGTASVVCLLNNFYPREAKVQWKVDNALQSGNSQESVTEQDSKDSTYSLSSTLTLSKADYEKHKVYACEVTHQGLSSPVTKSFNRGEC
113 % of control | GpH7-B3 variant S324_09D/GpL16-k0 (antibody, human IgG1, kappa, both H chains mutated; also called Ho Ab) heavy: not shown light: DIVMTQSPLSLPVTPGEPASISCQASESLVHSNRNTYLHWYLQKPGQSPQLLIYKVSNRFSGVPDRFSGSGSGTDFTLKISRVEAEDVGVYYCSQNTHVPPTFGQGTKVEIERTVAAPSVFIFPPSDEQLKSGTASVVCLLNNFYPREAKVQWKVDNALQSGNSQESVTEQDSKDSTYSLSSTLTLSKADYEKHKVYACEVTHQGLSSPVTKSFNRGEC
108 % of control | GpH7-B3 variant S324_20W/GpL16-k0 (antibody, human IgG1, kappa, both H chains mutated; also called Ho Ab) heavy: not shown light: DIVMTQSPLSLPVTPGEPASISCQASESLVHSNRNTYLHWYLQKPGQSPQLLIYKVSNRFSGVPDRFSGSGSGTDFTLKISRVEAEDVGVYYCSQNTHVPPTFGQGTKVEIERTVAAPSVFIFPPSDEQLKSGTASVVCLLNNFYPREAKVQWKVDNALQSGNSQESVTEQDSKDSTYSLSSTLTLSKADYEKHKVYACEVTHQGLSSPVTKSFNRGEC
112 % of control | GpH7-B3 variant S239_09D/GpL16-k0 (antibody, human IgG1, kappa, both H chains mutated; also called Ho Ab) heavy: not shown light: DIVMTQSPLSLPVTPGEPASISCQASESLVHSNRNTYLHWYLQKPGQSPQLLIYKVSNRFSGVPDRFSGSGSGTDFTLKISRVEAEDVGVYYCSQNTHVPPTFGQGTKVEIERTVAAPSVFIFPPSDEQLKSGTASVVCLLNNFYPREAKVQWKVDNALQSGNSQESVTEQDSKDSTYSLSSTLTLSKADYEKHKVYACEVTHQGLSSPVTKSFNRGEC
123 % of control | GpH7-B3 variant S324_06M/GpL16-k0 (antibody, human IgG1, kappa, both H chains mutated; also called Ho Ab) heavy: not shown light: DIVMTQSPLSLPVTPGEPASISCQASESLVHSNRNTYLHWYLQKPGQSPQLLIYKVSNRFSGVPDRFSGSGSGTDFTLKISRVEAEDVGVYYCSQNTHVPPTFGQGTKVEIERTVAAPSVFIFPPSDEQLKSGTASVVCLLNNFYPREAKVQWKVDNALQSGNSQESVTEQDSKDSTYSLSSTLTLSKADYEKHKVYACEVTHQGLSSPVTKSFNRGEC
120 % of control | GpH7-B3 variant S267_02A/GpL16-k0 (antibody, human IgG1, kappa, both H chains mutated; also called Ho Ab) heavy: not shown light: DIVMTQSPLSLPVTPGEPASISCQASESLVHSNRNTYLHWYLQKPGQSPQLLIYKVSNRFSGVPDRFSGSGSGTDFTLKISRVEAEDVGVYYCSQNTHVPPTFGQGTKVEIERTVAAPSVFIFPPSDEQLKSGTASVVCLLNNFYPREAKVQWKVDNALQSGNSQESVTEQDSKDSTYSLSSTLTLSKADYEKHKVYACEVTHQGLSSPVTKSFNRGEC
108 % of control | GpH7-B3 variant Q295_07I/GpL16-k0 (antibody, human IgG1, kappa, both H chains mutated; also called Ho Ab) heavy: not shown light: DIVMTQSPLSLPVTPGEPASISCQASESLVHSNRNTYLHWYLQKPGQSPQLLIYKVSNRFSGVPDRFSGSGSGTDFTLKISRVEAEDVGVYYCSQNTHVPPTFGQGTKVEIERTVAAPSVFIFPPSDEQLKSGTASVVCLLNNFYPREAKVQWKVDNALQSGNSQESVTEQDSKDSTYSLSSTLTLSKADYEKHKVYACEVTHQGLSSPVTKSFNRGEC
104 % of control | GpH7-B3 variant S324_10E/GpL16-k0 (antibody, human IgG1, kappa, both H chains mutated; also called Ho Ab) heavy: not shown light: DIVMTQSPLSLPVTPGEPASISCQASESLVHSNRNTYLHWYLQKPGQSPQLLIYKVSNRFSGVPDRFSGSGSGTDFTLKISRVEAEDVGVYYCSQNTHVPPTFGQGTKVEIERTVAAPSVFIFPPSDEQLKSGTASVVCLLNNFYPREAKVQWKVDNALQSGNSQESVTEQDSKDSTYSLSSTLTLSKADYEKHKVYACEVTHQGLSSPVTKSFNRGEC
